Article PMC4801485

Target: cyclophilin from Geobacillus kaustophilus (Geobacillus kaustophilus)
Assay: NMR line shape analysis

koff of the trans isomer (kBA): 720 s⁻¹
kon of the trans isomer (kAB): 5.2e+06 M⁻¹ s⁻¹
B1: peptide substrate … (peptide)
peptide: GSFGPDLRAGD
